In paper doi:10.1101/2021.09.22.461404 (bioRxiv, 2021):

Molecular target: the molecule itself
Assay: crystal structure

B1: closed-gate E71V KcsA (C-terminal tail removed by chymotrypsin) (domain or fragment)
chain: PMLSGLLARLVKLLLGRHGSALHWRAAGAATVLLVIVLLAGSYLAVLAERGAPGAQLITYPRALWWSVVTATTVGYGDLYPVTLWGRLVAVVVMVAGITSFGLVTAALATWFVGREQERRGH
stoichiometry N: 4
